Results as given in the nanobody polyreactivity screen of Harvey et al. (2022).

Experiment: yeast display, Sf9 membrane polyspecificity reagent, FACS + sequencing; frameworks hold sequencing errors
Summary of the method: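 Synthetic nanobody libraries on Saccharomyces cerevisiae BJ5465 were galactose-induced for 36–48 hours, stained 1 hour at 4 °C with 10% biotinylated, detergent-solubilized Sf9 membrane reagent and enriched on streptavidin microbeads. FACS then separated cells into low and high (top ~1%) gates by anti-HA (expression) and streptavidin (reagent binding) fluorescence. Genes were colony-PCR amplified, MiSeq 2 × 250 sequenced and CDR-length filtered. A clone's polyreactivity label is that of its gate of origin.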

Sequence | polyreactivity (PSR sort gate)
QVQLVESWGGLVQAGGSLRLSCAASGRTFDGNAMGWYRQAPGKEGEFVATISTDGGSTHYADSVKGRFTISRDNAKNTVYLQMNSLKPEDTAVYYCAADTPWYDDNYDYWGQGTQVTVSS | low polyreactivity
QVQLVESGGGLVQAGGSLRLSCAASGLTFIRYTRGWYRQAPGKDRELVAAINWSGDSTYYADSVKGRFTISLDNAKITVYLQMNSLKPEDTAVYYFNARRPRFRYDYWGQGTQVTVSW | high polyreactivity
QVQLVESGGGLVQAGGSLRLSCASSGLIFWKYAMVWYRQAPGKERELVAAIRKSVGSTYYADSVKGRFTISRDNAKNTVFLQMNSLKPEDTAVYFCAAVYAGVGSQVKPDYCGQGTQVTVSS | high polyreactivity
QVQLVESGGGLVQAGGSLRLSCAASGSTFGYNAMGWYRQAPGKEREFVARIRSSGSTTYADSVKGRFTISRDNAKNTVYLQMNSLKPEDTAVYYCAATFRGRYAYYYWGQGTQVTVSS | high polyreactivity
QVQLVESGGGLVQAGGSLRLSCAASGRIFYFYAMGWYRQAPGKERELVASISSGGITNYADSVKGRFTISRDNAKNTVYLQMNSLKPEDTAVYYCNAGYASGKYSGGYLYGYWGQGTQVTVSS | low polyreactivity
QVQLVESGGGLVQAGGSLRLSCAASGFTLYYYAMGWYRQAPGKERELVAAISTRGGRTYYADSVKGRFTISRDNAKNTVYLQINSLKPEDTAVYYCAAAFSLKSLNTRWTWSRYYYWGQGTQVTVSS | high polyreactivity
QVQLVESGGGLVQAGGSLRLSCAASGRIFHYAIGWYRQAPGKESELVAGISKRGGSTYYADSVKGRFTISRDNAKNTVYLQMNSLKPEDTAVYYCSKEHYWTLNGLTSYYWGQGSQVTVSS | high polyreactivity
QVQLVESGGGLVQAGGSLRLICAASGRIFRINAMGWYRQAPGKEREFVAAISWRSGSTYYADSVKGRFTISRDNAKNSVYLQMNSLKPEDTAVYYCAAKLYGYRSGYYYWGQGTQVTVSS | high polyreactivity
QVQLVESGGGLVQAGGSLRLSCAASGSTFFAYAMGWYRQAPGKERELVAAITGRGSTYYADSVKGRFTISRDNAKNTVYLQMNSLKPEDTAVYYCAAQRSRRYYRLDYWGQGTQVTVSS | high polyreactivity
QVQLVESVGGLVQAGGSLRLSCAASGRTFGHYAMGWYRQEPGKERELVAAITSRGGSTNYADSVKGRFTISRDNAKNTVYLQMNSLKPEDTAVYYCAADTLIPDYSATFGYWGEGTQVTVSS | high polyreactivity
QVQLVESGGGLVQAGGSLRLSCAASGIQVYNAMGWYRQAPGKERELVAAISARGGRTYYADSVKGRFTISRDNAKNTVYLQMNSLKPEDTAVYYCATLETTGVNYWGQGTLVTVSS | high polyreactivity
QVQLVESGGGLVQAGGTLRLSCAASGFIFDWNTKGWYRQAPGKERELVAAITESSGSTYYADSVKGRFTISRDNAKNTVYLQMNSLKPEDTAVYYCAAELDVYVSIGSRFHFDYWGQGTQVTVSS | low polyreactivity
QVQLEESGGGLVQAGGSLRLSCAASGRTINGNTMGWYRQAPGKERELVAVIDWSGGSTYYADSVKGRFTISRDNAKNTVYLQMNSLKPEDTAVYYWNAETRDPILYGEYDYWGQGTQVTVSS | low polyreactivity
QDQLVESGGGLVQAGGSLRLSCAASGSIFSNNAMGWYRQAPGKERELVATITFSGGNTYYADSVKGRFTISRDNAKNTVYLQMNSLKPEDTAVYYCNADRYPVGTAREYDSWGQGTQVTVSS | low polyreactivity
QVQLVQSGGGLVQAGGSLRLSCAASGRIFRYYGMGWYRQAPGKERELVAAISWNSGSTYYADSVKGRFTISRDNAKNTVYLQMNSLKPEDTAVYYCNKVLFISGYVRNYGEYEYWGQGTQVTVSS | high polyreactivity
QVQLVESGGGLVQAGGSLRLSCAASGSTFSEYAMGWYRQAPGKEREFVATITVRGGSTYYADSVKGRFTISRDNAKNTVYLQMNSLKPEDTAVYYCAADGSGYYDWYYYWGQGTQVTVSS | low polyreactivity

Sequence | polyreactivity (PSR sort gate)
QVQLVDSGGGLVQAGGSLRLSCAASGSTFYEYAMGWYRQPPGKERELVAAITSGGSTYYADSVKGRFTISRDNAKNTVYLQMNSLKPEDTAVYYCAADPRIRRGDRSTHGYDYWGQGTQVTVSS | low polyreactivity
QLQLVESGGGVVQAGGSLRLSCAATGRIDWNTMGWYRQAPGKERELVASISTGGGRTYYADSVKGRFTISRDNAKNTVYLQMISLKPEDTAVFYCNAVRTVWYRYEYGYWGQGTQVTVSS | high polyreactivity
QVQLVESGGALVQAGGSLRLSCAASGIIFGRNGMGWYRQAPGKERELVAAISRGGGSTYYADSVKGRFTISRDNAKNTVYLQMNSLKPEDTAVYYCARRPTGIYDYWGQVTQVTVSS | high polyreactivity
QDQLVESGGGLLQAGGSLRLSCAASGRTFRYYAMGWYRQAPGKERELVAAISWSGSSTYYADSVKGRFTISRDNAKNTVYLQMNSLKAEDTAVYDCNAKGVRGKYFDYSRVSAYDYWGQGTQVTVSS | low polyreactivity
QVQLVESGGRLVQAGGSLRLSCAPSGRTFGVYAMGWYRQAPGKERELVAVISSSSGSTYYADSVKGRFTISRDNAKNTVYLQMNSLKPEDTAVYYCAADFFYESFRDDYWGQGTQVTVSS | low polyreactivity
QVQLVESGGGLFQAGGSLRISCAATGSTFGSYAMGWYRQAPGKERELVAAISVGGGSTYYADSVKGRFTISRDNAKNTVYLKMNSLKPEDTAVFYCAATAPRWHHFYHWGQGTQVTVSS | high polyreactivity
QVQLVESGGGLVQAGGSLRLSCAASGRIYPGYTMGWYRQAPGKERELVAGISRSGGRTYYADSVKGRFTISRDNAKNTVYLQMNSLKPEDTAVYYCAADGYPGRRYTGMDYWGQGTQVTVSS | high polyreactivity
QVQLVESGGGLVQAGGSLRLSCAASGSTFSRNAMGWYRQAPGKERELVAAITLRGTNTYYADSVKGRFTISRDNAKNTVYLQMNSLKPEDTAVYYCAALRRGSGRYDMDYWGQGTQVTVSS | high polyreactivity
QVQLVESGGGLVQAGGSLRLSCAASGSTFWSYAMGWYRQAPGKERELVAVITGSDGRTFYADSVKGRFTISRDNAKNTVYFQINSLKPEDTAVYYCAADAVFRATRDDRSTSEDDYWGQGTQVTVSS | low polyreactivity
QVQLVESAGGLVQAGGRLRLSCAASGFTFVYYVMGWYRQAPGKERELVAAISNSGGSTYYADSVKGRFTISRDNAKNSVYLEMNSLKPEDTAVYYCAAPPGGGKYRGYYYWGQGTQVTVSS | high polyreactivity
QVQLVESGGGLVQAGGSLRLSCAASGSIFGINAMGWYRQAPGKERELVAAISWRGDSTSYADSVKGRFTISRDNAKNTVYLQMNSLKPEDTAVYYCAKGGTRFYVVGETYYYWGQGTQVTVSS | low polyreactivity
QVHLVESGGGLVQAGGSLRLSCAASGSTVYNAMGWYRQAPGKERELVAVITDSDGSTYYADSVKGRFTISRDNAKNTVYLQMNSLKPEDTAVYYCAVTAIALYYSSGYYWGQGTQVTVSS | low polyreactivity
QVQLVESGGGLVQAGGSLRLTCSASGIILYYYAMGWNRQAPGKERELVAAISSSGGSTYYADSVKGRFTFSRDNAKNTVYLQMKSLKPEDTAVYYCAAWVVPLRYAYGRLTYNYWGQGTQVTVSS | high polyreactivity
QVQLVESGGGLVQAGGSLRFSCAASGLYYYAMGWYRQAPGKERALVAVITYSGGSTYYADSVKGRFTISRDNGKNSVYLQMNSLKPEDTAVYNCAAEDYYVALPGLYDYWGQGTQVTVSS | low polyreactivity
QVKLVESGGGLVQAGGSLRLSCCASGSTFSPNTMGRYRQAPGKDREVVAAITYRGANTYYADSVKGRFTISRDNAKLTVYLQMNSLKPEDTAVYYCSAVYAYHHVGFGYWGQGTQVTVSS | low polyreactivity
